Experiments:
Format in all cases: cell-based, Saccharomyces cerevisiae
S. cerevisiae 334 [1] = test: Mouse elongase MELO7 activity in yeast; settings: for amount of TPA: may not be significant
Procedure: The construct pRAE-87 was transformed into S. cerevisiae 334 (Hoveland et al., supra) and screened for elongase activity. The negative control strain was S. cerevisiae 334 containing pYX242 vector. The cultures were grown for 42-48 hours at 30° C., in selective media (Ausubel et al., supra), in the presence of 25 _M of GLA, AA, STA, EPA, DPA, or ADA. […] The levels of these fatty acids were 4.1% (DGLA), 6.33% (ADA), 3.4% (ETA), and 6.18% (DPA), respectively, of the total fatty acids in the strain containing the pRAE-87 sequence. […] MELO7 protein (MELO7) was not involved in the elongation of ADA. MELO7p also appeared to be involved in further elongation of the fatty acid DPA produced by two-carbon elongation to TPA when EPA was the added substrate, and when DPA was added. However, the small amounts of the product fatty acids (0.27% and 0.25% of TPA) may not be significant.

S. cerevisiae 334 [2] = test: Mouse elongase MELO4 activity in yeast
Procedure: The construct pRAE-84 was transformed into S. cerevisiae 334 (Hoveland et al., supra) and screened for elongase activity. The negative control strain was S. cerevisiae 334 containing pYX242 vector. The cultures were grown for 42-48 hours at 30° C., in selective media (Ausubel et al., supra), in the presence of 25 μM of GLA, AA, ADA, STA, EPA, or DPA. […] However, there were accumulations of ADA, ω6-tetracosatetraenoic acid (TTA, C24:4n-6), ETA, DPA, and ω3-tetracosapentaenoic acid (TPA, C24:5n-3), respectively (FIG. 56). The n-6 fatty acid substrate AA was converted to ADA, which was subsequently converted to TTA, and the n-3 fatty acid EPA was converted to DPA, which was subsequently converted to TPA. The levels of these fatty acids were 0.64% (ADA), 1.07% (TTA), 1.47% (DPA), and 7.06% (TPA), respectively, of the total fatty acids in the strain containing the pRAE-84 sequence. […] The expression of MELO4 in yeast results in the conversion of C20 and C22 fatty acids to the respective elongated products. The conversion rate of C22 to C24 fatty acids is much greater when the exogenously added substrate is […].
To further confirm the substrate specificity of MELO4 protein (MELO4), the recombinant yeast strain 334(pRAE-84) was grown in minimal media containing 25 μM of saturated, monounsaturated, or polyunsaturated fatty acids. […] When AA was added exogenously, the levels of product fatty acids were 0.5% (ADA) and 0.39% (TTA), and when ADA was added exogenously, the level of product fatty acid was 1.3% (TTA) of the total fatty acids in the strain containing the pRAE-84 sequence. […] MELO4p is also involved in the elongation of GLA to DGLA. The lipid profile of the strain containing the pRAE-84 sequence, in presence of GLA, had 0.43% of DGLA, which represented 14.7% conversion of GLA to DGLA. MELO4p is also involved in the elongation of n-3 PUFAs EPA and DPA (FIG. 53C). […] When EPA was added, the levels of these fatty acids were 1.21% (DPA) and 3.38% (TPA), and when DPA was added, the level of the product fatty acid was 3.09% (TPA) of the total fatty acids in the strain containing the pRAE-84 sequence. […] MELO4p is also involved in the elongation of STA to C22:4n-3. When STA was added, the levels of fatty acids produced by two-carbon elongation were 0.3% ETA and 0.23% C22:4n-3. […] MELO4p also appeared to be involved in the elongation of ALA; however, the small amount of the fatty acid produced by two-carbon elongation (0.16% of ETrA) may not be significant.

S. cerevisiae 334 [3] = test: T. aureum elongase TELO1 activity in yeast
Procedure: The constructs pRAT-4-A1 through pRAT-4-D1 were transformed into S. cerevisiae 334 (Hoveland et al., supra) and screened for elongase activity. S. cerevisiae 334 containing the unaltered pYX242 vector was used as a negative control. The cultures were grown for 48 hours at 24° C., in selective media (Ausubel et al., supra), in the presence of 25 (3)M of GLA or EPA. In this study, DGLA or ω3-docosapentaenoic acid (DPA, 22:5n-3), respectively, was the predicted product of the elongase activity. […] This was expected in that the cDNA sequence of pRAT-4-A3 had several stops at the 5′ end of the sequence, which would result in a truncated version of the translated enzyme (FIG. 76). Although the DGLA level was very low for 334(pRAT-4-A2), the GLA level was the lowest in this sample; therefore, the conversion level of the fatty acid to its elongated form was significant at 28.4%. What was not expected was that there was definite substrate specificity among the expressed enzymes. […]
To further confirm the substrate specificity of TELO1p, the recombinant yeast strain 334(pRAT-4-A7) was grown in minimal media containing 25 μM of various PUFAs. […] The levels of these fatty acids were 1.07% (C20:2n-6), 5.84% (DGLA), and 0.76% (ADA), respectively, of the total fatty acids in the lysates of 334(pRAT-4-A7). […] TELO1p is also involved in the elongation of n-3 PUFAs ALA, STA, and EPA (FIG. 88). […] The levels of these fatty acids were 2.71% ETrA, 4.19% (ETA), and 1.99% (DPA), respectively, of the total fatty acids in the strain containing the TELO1 sequence. […] When STA was added as a substrate, there was also an accumulation of DTA in the culture. The level of this fatty acid was 0.74%, which represented 15.0% conversion of ETA, the two-carbon chain elongated product from substrate STA.

[4] = 25 μM AA added exogenously, FIG. 57B
[5] = 25 μM ADA added exogenously, FIG. 57B
[6] = 25 μM DPA added, second experiment
[7] = 25 μM EPA added, second experiment
[8] = C22 substrate ADA added, 25 μM, FIG. 56
[9] = C22 substrate printed as EPA, 25 μM, FIG. 56
[10] = 25 μM STA added as a substrate, FIG. 88

B1: MELO7: second mouse PUFA elongation enzyme (SEQ ID NO:6), homologue of HSELO1, expressed from pRAE-87 (protein, listed as Mus musculus)
chain: MEHFDASLSTYFKAFLGPRDTRVKGWFLLDNYIPTFVCSVIYLLIVWLGPKYMKNRQPFSCRGILQLYNLGLTLLSLYMFYELVTGVWEGKYNFFCQGTRSAGESDMKIIRVLWWYYFSKLIEFMDTFFFILRKNNHQITVLHVYHHATMLNIWWFVMNWVPCGHSYFGATLNSFIHVLMYSYYGLSSIPSMRPYLWWKKYITQGQLVQFVLTIIQTTCGVFWPCSFPLGWLFFQIGYMISLIALFTNFYIQTYNKKGASRRKDHLKGHQNGSVAAVNGHTNSFPSLENSVKPRKQRKD
S. cerevisiae 334 [1]; DPA was added
  amount of TPA: 0.25%
S. cerevisiae 334 [1]; EPA was the added substrate
  amount of TPA: 0.27%
S. cerevisiae 334 [1]; substrate AA, FIG. 60
  conversion of AA to ADA: 36.0%
  level of ADA, of the total fatty acids: 6.33%
S. cerevisiae 334 [1]; substrate ADA
  elongation of ADA: not involved
S. cerevisiae 334 [1]; substrate EPA, FIG. 60
  conversion of EPA to DPA: 57.4%
  level of DPA, of the total fatty acids: 6.18%
S. cerevisiae 334 [1]; substrate GLA, 42-48 hours at 30° C., FIG. 60
  level of DGLA, of the total fatty acids: 4.1%
S. cerevisiae 334 [1]; substrate GLA, FIG. 60
  conversion of GLA to DGLA: 78.7%
S. cerevisiae 334 [1]; substrate STA, FIG. 60
  conversion of STA to ETA: 81.0%
  level of ETA, of the total fatty acids: 3.4%

B2: MELO4: mouse PUFA elongation enzyme from brain cDNA (SEQ ID NO:5), expressed in yeast from pRAE-84 (protein, listed as Mus musculus)
chain: MEQLKAFDNEVNAFLDNMFGPRDSRVRGWFLLDSYLPTFILTITYLLSIWLGNKYMKNRPALSLRGILTLYNLAITLLSAYMLVELILSSWEGGYNLQCQNLDSAGEGDVRVAKVLWWYYFSKLVEFLDTIFFVLRKKTNQITFLHVYHHASMFNIWWCVLNWIPCGQSFFGPTLNSFIHILMYSYYGLSVFPSMHKYLWWKKYLTQAQLVQFVLTITHTLSAVVKPCGFPFGCLIFQSSYMMTLVILFLNFYIQTYRKKPVKKELQEKEVKNGFPKAHLIVANGMTDKKAQ
S. cerevisiae 334 [2]; [4]
  conversion of AA to ADA: 8.7%
  conversion of ADA to TTA: 43.8%
  level of ADA, of the total fatty acids: 0.5%
  level of TTA, of the total fatty acids: 0.39%
S. cerevisiae 334 [2]; 25 μM AA added, FIG. 56
  conversion of AA to ADA: 10.4%
  conversion of ADA to TTA: 62.6%
  level of ADA, of the total fatty acids: 0.64%
  level of TTA, of the total fatty acids: 1.07%
S. cerevisiae 334 [2]; [5]
  conversion of ADA to TTA: 7.3%
  level of TTA, of the total fatty acids: 1.3%
S. cerevisiae 334 [2]; 25 μM ALA, may not be significant
  level of ETrA: 0.16%
S. cerevisiae 334 [2]; [6]
  conversion of DPA to TPA: 46.4%
  level of TPA, of the total fatty acids: 3.09%
S. cerevisiae 334 [2]; 25 μM EPA added, FIG. 56
  conversion of DPA to TPA: 82.8%
  conversion of EPA to DPA: 32.7%
  level of DPA, of the total fatty acids: 1.47%
  level of TPA, of the total fatty acids: 7.06%
S. cerevisiae 334 [2]; [7]
  conversion of DPA to TPA: 73.6%
  conversion of EPA to DPA: 24.0%
  level of DPA, of the total fatty acids: 1.21%
  level of TPA, of the total fatty acids: 3.38%
S. cerevisiae 334 [2]; 25 μM GLA, 42-48 hours at 30° C., FIG. 56
  elongation of GLA to DGLA: GLA was not elongated
S. cerevisiae 334 [2]; 25 μM GLA, FIG. 57B
  conversion of GLA to DGLA: 14.7%
  level of DGLA in lipid profile: 0.43%
S. cerevisiae 334 [2]; 25 μM STA added
  conversion of ETA to C22:4n-3: 43.4%
  conversion of STA to ETA: 11.1%
  level of C22:4n-3: 0.23%
  level of ETA: 0.3%
S. cerevisiae 334 [2]; 25 μM substrate
  elongation of monounsaturated fatty acids PTA, OA, or EA: also not involved
S. cerevisiae 334 [2]; 25 μM substrate, FIG. 57A
  elongation of saturated fatty acids PA, SA, ARA, or BA: not involved
S. cerevisiae 334 [2]; [8]
  conversion of ADA to TTA: 9.2%
  level of TTA, of the total fatty acids: 2.4%
S. cerevisiae 334 [2]; [9]
  conversion of C22 substrate to TPA: 43.9%
  level of TPA, of the total fatty acids: 3.82%

B3: TELO1: Thraustochytrium aureum 7091 elongase (SEQ ID NO:7) from plasmid pRAT-4-A7 (protein, listed as Thraustochytrium aureum)
chain: MANSSVWDDVVGRVETGVDQWMDGAKPYALTDGLPMMDVSTMLAFEVGYMAMLLFGIPIMKQMEKPFELKTIKLLHNLFLFGLSLYMCVETIRQAILGGYKVFGNDMEKGNESHAQGMSRIVYVFYVSKAYEFLDTAIMILCKKFNQVSFLHVYHHATIFAIWWAIAKYAPGGDAYFSVILNSFVHTVMYAYYFFSSQGFGFVKPIKPYITTLQMTQFMAMLVQSLYDYLFPCDYPQALVQLLGVYMITLLALFGNFFVQSYLKKPKKSKTN
S. cerevisiae 334 [3]; 25 μM AA, FIG. 88
  conversion of AA to ADA: 3.5%
  level of ADA, of the total fatty acids: 0.76%
S. cerevisiae 334 [3]; 25 μM ALA, FIG. 88
  conversion of ALA to ETrA: 43.3%
  level of ETrA, of the total fatty acids: 2.71%
S. cerevisiae 334 [3]; 25 μM EPA, FIG. 88
  conversion of EPA to DPA: 11.5%
  level of DPA, of the total fatty acids: 1.99%
S. cerevisiae 334 [3]; 25 μM GLA, FIG. 88
  conversion of GLA to DGLA: 78.6%
  level of DGLA, of the total fatty acids: 5.84%
S. cerevisiae 334 [3]; 25 μM LA, FIG. 88
  conversion of LA to C20:2n-6: 23.2%
  level of C20:2n-6, of the total fatty acids: 1.07%
S. cerevisiae 334 [3]; [10]
  conversion of ETA to DTA: 15.0%
  level of DTA: 0.74%
S. cerevisiae 334 [3]; 25 μM STA, FIG. 88
  conversion of STA to ETA: 85.3%
  level of ETA, of the total fatty acids: 4.19%
S. cerevisiae 334 [3]; EPA added as a substrate, 48 hours at 24° C., FIG. 81
  levels of DPA: significant levels of DPA

— patent US7968692B2, “Elongase genes and uses thereof” (Abbott Laboratories, priority 1998, dated 2011)
